Data as given in publication PMC10590398, “Hfq C-terminal region forms a β-rich amyloid-like motif without perturbing the N-terminal Sm-like structure” (Communications Biology, 2023).

How the values were obtained:
[1] = molecular target: the molecule itself; assay: X-ray fibre diffraction; Hfq11 filaments assembled in water, seen as bundles of approx. 20 nm fibers by TEM; powder diffraction at 270 K, Cu Kα, washed by centrifugation; reflections at 4.6 Å and 7.8–8 Å (cross-β)
[2] = molecular target: the molecule itself; assay: ATR-FTIR; assembled Hfq CTR at 20 mg/mL in D2O, the amyloid state at the start of the lipid experiment

| Protein | binding result [1] | binding result [2] |
| --- | --- | --- |
| SAQNTSAQQDS (Hfq (host factor 1), E. coli, C-terminal region; Unlabelled synthetic peptide, studied as assembled filaments; also called Hfq 11-residues; 11-residue C-terminal Hfq peptide; source: synthetic peptide (Proteogenix), assembled in water at 4 °C at 20 mg/mL for >1 month) [Hfq11, minimal 11-residue C-terminal assembling motif of E. coli Hfq (Hfq_(87-97))] | binds |  |
| SRPVSHHSNNAGGGTSSNYHHGSSAQNTSAQQDSEETE (Hfq (host factor 1), E. coli, C-terminal region; The lipid experiment names its sample only 'assembled Hfq CTR'; also called Hfq 38-residues; Hfq CTR; source: synthetic peptide (Proteogenix), assembled at 4 °C at 20 mg/mL for >1 month (D2O for FTIR)) [Hfq 38-residue C-terminal region peptide] |  | binds |
